Laboratory results: patent publication US20040077828A1 (US Dept. of Health and Human Services, published 2004)
Numbering of substitutions follows the chain as printed. Where no end group is shown, it is not given here.

T1: naturally occurring sFRP-1 present in the cultures
T1 sequence (Q8C4U3 32-314, species assumed, looked up): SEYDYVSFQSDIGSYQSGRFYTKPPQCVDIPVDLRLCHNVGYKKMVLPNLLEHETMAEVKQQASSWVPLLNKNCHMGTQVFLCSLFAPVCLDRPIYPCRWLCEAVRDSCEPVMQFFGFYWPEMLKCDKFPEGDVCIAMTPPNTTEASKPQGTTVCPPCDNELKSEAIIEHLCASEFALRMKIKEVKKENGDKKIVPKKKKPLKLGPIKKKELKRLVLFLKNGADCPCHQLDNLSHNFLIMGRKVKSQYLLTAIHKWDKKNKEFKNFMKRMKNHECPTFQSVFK

B1: recombinant soluble RANKL (PeproTech) (ligand)
chain: IRAEKAMVDGSWLDLAKRSKLEAQPFAHLTINATDIPSGSHKVSLSSWYHDRGWAKISNMTFSNGKLIVNQDGFYYLYANICFRHHETSGDLATEYLQLMVYVTKTSIKIPSSHTLMKGGSTKYWSGNSEFHFYSINVGGFFKLRSGEEISIEVSNPSLLDPDQDATYFGAFKVRDID
notes: Reagent of the ELISA assays; also called sRANKL
B2: B-B9 M13 phage (peptide linked to gene III coat protein) (other)
chain: LVDGRWLYNPHH
modifications: not fully specified
notes: the text gives 27; also called B-B9 phage; not shown: M13 phage gene III coat protein
B3: ΔCRD-H/M (other)
single chain: EYDYVSFQSDIGPYQSGRFYTKPPQIAMTPPNATEASKPQGTTVCPPCDNELKSEAIIEHLCASEFALRMKIKEVKKENGDKKIVPKKKKPLKLGPIKKKDLKKLVLYLKNGADCPCHQLDNLSHHFLIMGRKVKSQYLLTAIHKWDKKNKEFKNFMKKMKNHECPTFQSVFKQAYVEQKLISEEDLNSAVDHHHHHH
notes: the sheet prints H/M, the text M/H; also called human sFRP-ΔCRD-M/H; sFRP-1 derivative lacking the CRD
B4: recombinant human secreted Frizzled-related protein-1 (sFRP-1) (other)
chain: T1 sequence (Q8C4U3 32-314, species assumed, looked up) with S14P, V32A, M76A, T143A, E211D, R214K, F218Y, N236H, R269K
notes: also called full-length sFRP-1
B5: A-C2-expressing M13 phage (peptide linked to gene III coat protein) (other)
chain: QGTLVDGRWLQL
modifications: not fully specified
notes: also called A-C2 phage; not shown: M13 phage gene III coat protein
B6: A-E4-expressing M13 phage (peptide linked to gene III coat protein) (other)
chain: VVDGRWVQGLED
modifications: not fully specified
notes: Printed as VVDGRWVQGLED; also called A-E4 phage; not shown: M13 phage gene III coat protein

Columns and labels:
bovine serum albumin = target: T2, bovine serum albumin (bovine, UniProt P02769 25-607); experiment: ELISA: serial dilutions of soluble RANKL on wells treated with BSA only; detection with RANKL antibody, AP-coupled secondary antibody and pNPP
T2 construct: Control coat; also called BSA
Protocol: (§1) ELISA experiments were generally performed as previously described (Uren et al., J. Biol. Chem. 275:4374-4382, 2000), with modifications depending on the sFRP binding partner to be tested. Typically, wells were coated with 0.5 or 1 μg of sFRP-1, blocked with BSA (0.2%, 1%, or 4%) and then incubated with putative binding partner overnight at room temperature. When investigating the binding of peptide/AP chimeras, after aspiration of bacterial broths, wells were washed and incubated with p-nitrophenolphosphate (pNPP). Color development was determined at 405 nm with an ELISA reader. For competition experiments, soluble peptides were preincubated with peptide/AP chimeras in bacterial broth for 30 min at room temperature prior to transfer into ELISA wells coated with sFRP-1 or BSA. When testing RANKL binding to sFRP-1, serial dilutions of soluble RANKL were assayed in replicate. Following overnight incubation at room temperature, RANKL solutions were aspirated and bound RANKL was detected by sequential incubations with primary antibody to RANKL, secondary antibody coupled with AP and pNPP. Similar experimental designs were employed when other TNFα family members were examined for binding to sFRPs, and when sFRP-1 derivatives or sFRP-2 were the binding targets for RANKL.
(§2) The possibility that sFRP-1 (SEQ ID NO: 3) and RANKL interact directly with each other was tested using an ELISA assay. […]

[1] = target: B4; experiment: ELISA: serial dilutions of soluble RANKL on sFRP-1-coated, BSA-blocked wells; detection with RANKL antibody, AP-coupled secondary antibody and pNPP
Protocol: as §1, §2

[2] = target: B4; experiment: phage ELISA, sFRP-1-coated against BSA-coated wells
Protocol: Amplified phage recovered from bacterial broth after this first enrichment step were subjected to two more rounds of panning in wells coated with sFRP-1 as described in the previous paragraph, except that the phage were incubated for only 2 hours and 1 hour in the second and third panning steps, respectively. After the third round of panning, phage obtained from the sFRP-1-coated well were titered and seeded on a lawn of bacteria to permit isolation of phage from 200 separate colonies. Bacteria from each of these colonies were grown in broth, pelleted by centrifugation and phage retrieved in the supernatant. Each of these phage supernatants was tested for binding to sFRP-1-coated ELISA wells versus wells only coated with the BSA blocking solution. Phage were detected in this assay with primary antibody directed against phage coat protein (Pharmacia Biotech, Uppsala, Sweden, #27-9411-01) and standard detection reagents.
To identify peptide sequences that bind sFRP-1, ˜25×10⁹ phages from a library containing a diverse repertoire of twelve-amino acid residue segments linked to the gene III coat protein of M13 phage were screened. After three successive rounds of panning for phage that bound to ELISA wells preincubated with sFRP-1, the phage preparation selected for its ability to bind sFRP-1 was titered and then plated on a lawn of bacteria. Phage from 200 separate colonies of lysed bacteria were picked, grown in bacterial broth overnight, recovered in supernatant, and tested for their ability to bind preferentially to sFRP-1 versus BSA in an ELISA. Phage that bound at least five times more avidly to sFRP-1 than BSA-coated wells were subjected to nucleotide sequence analysis to determine the identity of the peptide sequence responsible for this binding specificity.

[3] = target: B1; experiment: ELISA: wells coated with sFRP-1 or derivative, incubated with soluble RANKL, bound RANKL detected; triplicates
Protocol: FIG. 12 is a graph of the binding avidity of several sFRP-1 deletion mutants for RANKL in ELISA experiments. Wells were coated either with full-length sFRP-1 or with any one of a set of epitope-tagged sFRP-1 deletion mutants (Uren et al., J Biol Chem 275:4374-4382, 2000) or BSA control, and then sequentially incubated with soluble RANKL and reagents to detect RANKL bound to the wells. The results shown are the mean +/−S.D. of triplicate measurements from a representative experiment.
ELISA experiments were generally performed as previously described (Uren et al., J. Biol. Chem. 275:4374-4382, 2000), with modifications depending on the sFRP binding partner to be tested. Typically, wells were coated with 0.5 or 1 μg of sFRP-1, blocked with BSA (0.2%, 1%, or 4%) and then incubated with putative binding partner overnight at room temperature. When investigating the binding of peptide/AP chimeras, after aspiration of bacterial broths, wells were washed and incubated with p-nitrophenolphosphate (pNPP). Color development was determined at 405 nm with an ELISA reader. […] Following overnight incubation at room temperature, RANKL solutions were aspirated and bound RANKL was detected by sequential incubations with primary antibody to RANKL, secondary antibody coupled with AP and pNPP. […]

[4] = target: T1, naturally occurring sFRP-1 present in …; experiment: cell-based or functional assay
[5] = target: B4; experiment: Isothermal titration calorimetry: A-C2 peptide (200 µM in PBS) injected into sFRP-1 (10 µM in PBS); no unit printed in the box
Protocol: (§3) ITC experiments were performed with a VP-ITC MicroCalorimeter MicroCal, LLC, Northhampton, Mass.) according to the manufacturer's User Manual. In brief, 6 μl aliquots of A-C2 (200 μM, dissolved in PBS) were injected at regular intervals into a chamber containing sFRP-1 (10 μM, also in PBS). Increases in temperature of the chamber resulting from the binding of A-C2 and sFRP-1 were determined as a measure of the heat produced by the binding reaction. Several parameters, included enthalpy and dissociation constant, were calculated from these measurements. This technique is commonly used to quantify the thermodynamic properties of binding interactions between proteins and peptides.
(§4) Binding was evident, as heat was generated when aliquots of AC2 solution were added to a chamber containing sFRP-1 dissolved in PBS. By contrast, no heat was produced when AC2 was added to a chamber containing only PBS.

[6] = target: B4; experiment: isothermal titration calorimetry, A-C2 (200 uM) injected into sFRP-1 (10 uM) in PBS
Protocol: as §3, §4

[7] = target: B4; experiment: Isothermal titration calorimetry: A-C2 peptide (200 µM in PBS) injected into sFRP-1 (10 µM in PBS)
Protocol: as §3, §4

[8] = target: T3, alkaline phosphatase itself (UniProt P00634 22-471 = phosphatase, limits assumed); experiment: ELISA, sFRP-1-coated wells against BSA wells
T3 construct: Control for the peptide/AP fusions; also called AP
T3 sequence (P00634 22-471 limits assumed): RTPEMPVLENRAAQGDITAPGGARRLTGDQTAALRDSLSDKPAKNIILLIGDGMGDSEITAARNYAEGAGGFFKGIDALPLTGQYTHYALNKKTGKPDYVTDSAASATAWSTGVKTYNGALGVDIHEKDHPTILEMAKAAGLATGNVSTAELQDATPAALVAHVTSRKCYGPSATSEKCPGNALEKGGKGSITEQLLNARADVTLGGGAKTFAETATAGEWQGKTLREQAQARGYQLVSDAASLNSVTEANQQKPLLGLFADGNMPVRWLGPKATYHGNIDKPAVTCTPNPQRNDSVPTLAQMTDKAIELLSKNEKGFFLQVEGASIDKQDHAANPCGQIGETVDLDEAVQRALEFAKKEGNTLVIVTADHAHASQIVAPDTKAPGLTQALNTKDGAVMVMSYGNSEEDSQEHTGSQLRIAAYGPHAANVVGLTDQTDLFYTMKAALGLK

T2 sequence (P02769 25-607 limits assumed): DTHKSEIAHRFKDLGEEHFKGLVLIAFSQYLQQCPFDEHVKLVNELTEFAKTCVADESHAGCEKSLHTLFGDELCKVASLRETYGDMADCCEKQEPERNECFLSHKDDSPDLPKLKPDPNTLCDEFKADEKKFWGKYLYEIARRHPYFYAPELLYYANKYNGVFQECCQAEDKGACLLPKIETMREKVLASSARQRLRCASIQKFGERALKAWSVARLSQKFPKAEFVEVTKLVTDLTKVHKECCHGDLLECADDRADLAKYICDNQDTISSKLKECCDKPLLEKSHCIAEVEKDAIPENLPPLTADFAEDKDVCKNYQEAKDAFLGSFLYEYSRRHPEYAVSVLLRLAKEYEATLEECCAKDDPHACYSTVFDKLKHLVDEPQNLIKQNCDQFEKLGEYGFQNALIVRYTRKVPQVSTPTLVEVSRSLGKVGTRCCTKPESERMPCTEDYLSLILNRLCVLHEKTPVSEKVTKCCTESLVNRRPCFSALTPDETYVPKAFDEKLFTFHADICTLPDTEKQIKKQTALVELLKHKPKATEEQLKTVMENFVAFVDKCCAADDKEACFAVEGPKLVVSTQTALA

With B1 the binding result (bovine serum albumin) was “no binding (tested: 10 ug/ml)” and the “EC50 (read off the curve)” value [1] was about 1 µg/mL.

For B2, the “Specificity (sFRP-1/BSA)” value [2] was 5 ratio of binding to sFRP-1 wells over BSA wells.

B3: no binding [3].

QGTLVDGRWLQL (also called AC2 peptide) [A-C2 synthetic 12-mer peptide] was tested, and the “TRAP+ multinucleated cells, osteoblast and adult spleen cell co-cultures” value [4] was 10 fold increase, the ΔH [5] was -3620 and the ΔS [5] was 12.6. The Kd [6] was 3.9 µM and the N [7] was 1.14.

B4: no binding [8].

With B5 the “Specificity (sFRP-1/BSA)” value [2] was 10 ratio of binding to sFRP-1 wells over BSA wells.

With B6 the “Specificity (sFRP-1/BSA)” value [2] was 10 ratio of binding to sFRP-1 wells over BSA wells.
